The record followed here is patent US5717058, “Peptide inhibitors of tax-dependent transcription” (Somatogen, Inc.).

Data set [1] deals with CREB + Tax (HTLV-I Tax enhances CREB binding) (/ HTLV-I, UniProt P16220;P03409 P16220:1-327,P03409:1-353). The data set can be described thus: EMSA. To be noted: tags: Tax carries C-terminal His6 (TaxH6); label: 32P end-label; cloned into pUC19 Bgl II site, 70 bp Kpn I-Hind III fragment used as probe. A general note: Mobility shift assays separate free from complexed probe on a gel.
Chain of CREB + Tax (HTLV-I Tax enhances CREB binding) (P16220 whole entry, chain 1 of 2, the tested form may be a part): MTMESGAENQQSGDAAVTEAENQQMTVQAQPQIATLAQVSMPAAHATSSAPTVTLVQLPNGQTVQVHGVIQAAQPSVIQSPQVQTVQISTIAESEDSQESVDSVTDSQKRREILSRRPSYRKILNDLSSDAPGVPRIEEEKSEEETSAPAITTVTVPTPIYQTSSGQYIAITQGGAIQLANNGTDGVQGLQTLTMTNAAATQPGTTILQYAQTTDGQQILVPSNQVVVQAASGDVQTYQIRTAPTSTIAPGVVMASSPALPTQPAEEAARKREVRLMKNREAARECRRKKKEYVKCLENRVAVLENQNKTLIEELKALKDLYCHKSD
Chain of CREB + Tax (HTLV-I Tax enhances CREB binding) (P03409 whole entry, chain 2 of 2, the tested form may be a part): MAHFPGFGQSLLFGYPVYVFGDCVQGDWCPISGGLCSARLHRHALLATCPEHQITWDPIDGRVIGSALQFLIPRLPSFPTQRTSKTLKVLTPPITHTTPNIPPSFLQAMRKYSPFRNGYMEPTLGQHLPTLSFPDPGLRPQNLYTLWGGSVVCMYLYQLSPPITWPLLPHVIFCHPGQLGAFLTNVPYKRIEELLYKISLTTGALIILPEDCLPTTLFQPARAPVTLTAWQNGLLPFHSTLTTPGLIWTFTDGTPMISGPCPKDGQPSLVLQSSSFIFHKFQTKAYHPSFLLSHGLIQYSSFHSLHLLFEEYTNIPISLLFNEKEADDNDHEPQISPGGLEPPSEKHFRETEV

The next data set concerns the target CREB (UniProt P16220 P16220:1-327). The data set can be described thus: EMSA; 3.4 nM CREB, 0.5 nM probe, 10 ng poly dIdC, 75 mM KCl, 6.25 mM MgCl2, room temp; reference without Tax. To be noted: tags: heparin-agarose purified, prepared per Franklin et al. 1993; chain copies: 2; label: 32P end-label; cloned into pUC19 Bgl II site, 70 bp Kpn I-Hind III fragment used as probe.

Chain of CREB (P16220 whole entry, the tested form may be a part, one chain of several): as the sequence (P16220 whole entry, chain 1 of 2, the tested form may be a part) above

B1: HTLV-I third 21 bp repeat (site 3 probe) (dsDNA)
DNA 1: GATCTGGCGTTGACGACAACCCCA
DNA 2: TGGGGTTGTCGTCAACGCCAGATC
In the case of B1, the binding signal in data set [1] is 3.9 fold; with CREB it was 1 fold.
